Laboratory results from US20090136936A1.
Values joined by “and” are separate entries in the source; they are usually repeats but may differ in a detail not shown here. Equal entries are not always repeated. Where two headings read alike, the source gives them in different places.

What was measured:
[1] = target: PA-FITC (PA antigen of Bacillus anthracis) (Bacillus anthracis) (UniProt P13423)
[2] = target: Recombinant human FcγRI/CD64, extracellular domain, glycosylated (human) (UniProt P12314); assay: SPR (BIAcore 3000), FcγRIa immobilized on CM-5
Recombinant human FcγRI/CD64, extracellular domain, glycosylated (human), sequence (P12314 16-292): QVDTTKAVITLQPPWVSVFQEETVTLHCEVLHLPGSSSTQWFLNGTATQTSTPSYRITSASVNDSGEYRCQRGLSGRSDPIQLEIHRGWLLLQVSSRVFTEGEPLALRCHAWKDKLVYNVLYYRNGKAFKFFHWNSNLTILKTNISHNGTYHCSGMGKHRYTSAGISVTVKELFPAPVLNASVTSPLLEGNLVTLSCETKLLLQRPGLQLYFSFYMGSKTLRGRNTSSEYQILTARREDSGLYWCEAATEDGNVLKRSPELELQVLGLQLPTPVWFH

[3] = target: Protein A-FITC (Staphylococcus aureus) (UniProt P38507); assay: flow cytometry (FL1-Height) of E. coli spheroplasts labelled with Protein A-FITC; no Fc expressed [panel a]
[4] = target: extracellular domain of glycosylated FcγRIIa (R&D systems), FITC-labeled (human) (UniProt P12318); assay: flow cytometry of spheroplasts displaying the Fc, labelled with FcγRIIa-FITC
extracellular domain of glycosylated FcγRIIa (R&D systems), FITC-labeled (human), sequence (P12318 34-217): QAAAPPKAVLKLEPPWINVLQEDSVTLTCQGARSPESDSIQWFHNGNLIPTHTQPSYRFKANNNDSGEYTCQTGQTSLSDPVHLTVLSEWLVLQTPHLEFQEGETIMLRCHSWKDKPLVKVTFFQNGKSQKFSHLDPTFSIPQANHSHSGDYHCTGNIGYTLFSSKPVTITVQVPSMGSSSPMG

[5] = target: Protein A-FITC (Staphylococcus aureus) (UniProt P38507); assay: flow cytometry (FL1-Height) of E. coli spheroplasts labelled with Protein A-FITC; one plasmid, no cJun anchor co-expressed [panel b]
[6] = target: Protein A-FITC (Staphylococcus aureus) (UniProt P38507); assay: flow cytometry (FL1-Height) of E. coli spheroplasts labelled with Protein A-FITC; Fc-cFos co-expressed with the inner-membrane anchor NlpA-cJun-FLAG [panel a]
[7] = target: Recombinant human FcγRI/CD64, extracellular domain, glycosylated (human) (UniProt P12314); assay: flow cytometry of spheroplasts displaying the Fc clone, labelled with FcγRIa-FITC; the value is repeated on D00019 and D00020
[8] = target: Protein A-FITC (Staphylococcus aureus) (UniProt P38507); assay: flow cytometry (FL1-Height) of spheroplasts labelled with Protein A-FITC; medium TB
[9] = target: Protein A-FITC (Staphylococcus aureus) (UniProt P38507); assay: flow cytometry (FL1-Height) of E. coli spheroplasts labelled with Protein A-FITC; APEx displayed Fc [panel a]
[10] = target: Protein A-FITC (Staphylococcus aureus) (UniProt P38507); assay: flow cytometry (FL1-Height) of spheroplasts labelled with Protein A-FITC; medium TB, 0.5M Trehalose
[11] = target: Protein A-FITC (Staphylococcus aureus) (UniProt P38507); assay: flow cytometry (FL1-Height) of spheroplasts labelled with Protein A-FITC; medium 'TB, 0.5M Soribitol'
[12] = target: Protein A-FITC (Staphylococcus aureus) (UniProt P38507)
[13] = target: Protein A-FITC (Staphylococcus aureus) (UniProt P38507); remark: listed apart in the source
[14] = target: Protein A-FITC (Staphylococcus aureus) (UniProt P38507); assay: flow cytometry (FL1-Height) of E. coli spheroplasts labelled with Protein A-FITC; one plasmid, no cJun(Cys) anchor co-expressed [panel b]
[15] = target: Protein A-FITC (Staphylococcus aureus) (UniProt P38507); assay: flow cytometry (FL1-Height) of E. coli spheroplasts labelled with Protein A-FITC; Fc-cFos(Cys) co-expressed with the inner-membrane anchor NlpA-cJun(Cys)-FLAG; the same histogram stands in both panels [panels a and b]

PA-FITC (PA antigen of Bacillus anthracis) (Bacillus anthracis), sequence (P13423 30-764 limits assumed): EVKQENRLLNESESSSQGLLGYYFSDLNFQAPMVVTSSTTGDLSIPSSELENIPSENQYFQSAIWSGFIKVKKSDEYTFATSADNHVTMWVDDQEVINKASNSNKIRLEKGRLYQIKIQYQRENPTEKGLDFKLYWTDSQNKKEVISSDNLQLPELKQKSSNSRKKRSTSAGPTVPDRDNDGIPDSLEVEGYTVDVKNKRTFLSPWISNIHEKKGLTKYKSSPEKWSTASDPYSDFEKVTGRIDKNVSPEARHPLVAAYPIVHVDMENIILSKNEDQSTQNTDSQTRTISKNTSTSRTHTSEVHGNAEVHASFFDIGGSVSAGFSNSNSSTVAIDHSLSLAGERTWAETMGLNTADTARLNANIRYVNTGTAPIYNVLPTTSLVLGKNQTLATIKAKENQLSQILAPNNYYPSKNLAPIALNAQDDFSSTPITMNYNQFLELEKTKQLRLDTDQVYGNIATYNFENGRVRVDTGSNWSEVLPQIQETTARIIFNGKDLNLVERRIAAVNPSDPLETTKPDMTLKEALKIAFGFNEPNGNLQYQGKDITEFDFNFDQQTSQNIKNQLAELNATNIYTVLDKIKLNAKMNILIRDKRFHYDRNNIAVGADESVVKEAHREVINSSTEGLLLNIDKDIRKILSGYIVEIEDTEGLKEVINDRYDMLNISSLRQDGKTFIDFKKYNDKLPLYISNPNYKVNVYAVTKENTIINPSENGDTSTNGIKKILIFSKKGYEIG

In the case of M18.1 humanized scFv, the Mn (mean fluorescence intensity) [1] is reported as 313.

“commercially available glycosylated human IgG1 (antibody)” was tested, and the Kd [2] was 18 nM.

In the case of NlpA-cJun(Cys)-FLAG, the Mn (mean fluorescence intensity) [3] is reported as 111.

Work on “Fc5 (E382V, M428I), aglycosylated Fc mutant (from UniProt P0DOX5 223-449)” yielded a M (mean fluorescence intensity) [4] of 66.7.

For PelB-Fc-cFos-His, the Mn (mean fluorescence intensity) [5] was 837 and the Mn (mean fluorescence intensity) [6] was 244.

“Fc117 (E382V, M428I, Y436A), aglycosylated Fc mutant (from UniProt P0DOX5 223-449)” was tested, and the FACS mean value [7] was 391.

Substance 26-10 scFv (anti-digoxin) has a Mn (mean fluorescence intensity) [1] of 16.3.

NlpA-Fc-His showed a Mn (mean fluorescence intensity) [8] of 1080, a Mn (mean fluorescence intensity) [9] of 2410 and a Mn (mean fluorescence intensity) [10] of 3130. It also gave a Mn (mean fluorescence intensity) [11] of 1290.

Work on 26-10 scAb (anti-digoxin) yielded a Mn (mean fluorescence intensity) [1] of 14.7.

M18.1 humanized IgG1 (antibody) gave a Mn (mean fluorescence intensity) [1] of 164.

Substance 26-10 IgG1 (anti-digoxin) (antibody) has a Mn (mean fluorescence intensity) [1] of 13.9.

In the case of M18 scFv (PelB fused, anti-PA), the M (mean fluorescence intensity) [12] is reported as 40 and 62.9 and the M (mean fluorescence intensity) [13] is reported as 43.

Work on M18.1 humanized scAb yielded a Mn (mean fluorescence intensity) [1] of 277.

Work on PelB-Fc-cFos(Cys)-His yielded a Mn (mean fluorescence intensity) [14] of 879 and a Mn (mean fluorescence intensity) [15] of 733.
